In IntAct's records for PubMed 20961850:

B1: Phospholipid-transporting ATPase IC (Homo sapiens), O43520 (parent)
chain: MSTERDSETTFDEDSQPNDEVVPYSDDETEDELDDQGSAVEPEQNRVNREAEENREPFRKECTWQVKANDRKYHEQPHFMNTKFLCIKESKYANNAIKTYKYNAFTFIPMNLFEQFKRAANLYFLALLILQAVPQISTLAWYTTLVPLLVVLGVTAIKDLVDDVARHKMDKEINNRTCEVIKDGRFKVAKWKEIQVGDVIRLKKNDFVPADILLLSSSEPNSLCYVETAELDGETNLKFKMSLEITDQYLQREDTLATFDGFIECEEPNNRLDKFTGTLFWRNTSFPLDADKILLRGCVIRNTDFCHGLVIFAGADTKIMKNSGKTRFKRTKIDYLMNYMVYTIFVVLILLSAGLAIGHAYWEAQVGNSSWYLYDGEDDTPSYRGFLIFWGYIIVLNTMVPISLYVSVEVIRLGQSHFINWDLQMYYAEKDTPAKARTTTLNEQLGQIHYIFSDKTGTLTQNIMTFKKCCINGQIYGDHRDASQHNHNKIEQVDFSWNTYADGKLAFYDHYLIEQIQSGKEPEVRQFFFLLAVCHTVMVDRTDGQLNYQAASPDEGALVNAARNFGFAFLARTQNTITISELGTERTYNVLAILDFNSDRKRMSIIVRTPEGNIKLYCKGADTVIYERLHRMNPTKQETQDALDIFANETLRTLCLCYKEIEEKEFTEWNKKFMAASVASTNRDEALDKVYEEIEKDLILLGATAIEDKLQDGVPETISKLAKADIKIWVLTGDKKETAENIGFACELLTEDTTICYGEDINSLLHARMENQRNRGGVYAKFAPPVQESFFPPGGNRALIITGSWLNEILLEKKTKRNKILKLKFPRTEEERRMRTQSKRRLEAKKEQRQKNFVDLACECSAVICCRVTPKQKAMVVDLVKRYKKAITLAIGDGANDVNMIKTAHIGVGISGQEGMQAVMSSDYSFAQFRYLQRLLLVHGRWSYIRMCKFLRYFFYKNFAFTLVHFWYSFFNGYSAQTAYEDWFITLYNVLYTSLPVLLMGLLDQDVSDKLSLRFPGLYIVGQRDLLFNYKRFFVSLLHGVLTSMILFFIPLGAYLQTVGQDGEAPSDYQSFAVTIASALVITVNFQIGLDTSYWTFVNAFSIFGSIALYFGIMFDFHSAGIHVLFPSAFQFTGTASNALRQPYIWLTIILAVAVCLLPVVAIRFLSMTIWPSESDKIQKHRKRLKAEEQWQRRQQVFRRGVSTRRSAYAFSHQRGYADLISSGRSIRKKRSPLDAIVADGTAEYRRTGDS
partner: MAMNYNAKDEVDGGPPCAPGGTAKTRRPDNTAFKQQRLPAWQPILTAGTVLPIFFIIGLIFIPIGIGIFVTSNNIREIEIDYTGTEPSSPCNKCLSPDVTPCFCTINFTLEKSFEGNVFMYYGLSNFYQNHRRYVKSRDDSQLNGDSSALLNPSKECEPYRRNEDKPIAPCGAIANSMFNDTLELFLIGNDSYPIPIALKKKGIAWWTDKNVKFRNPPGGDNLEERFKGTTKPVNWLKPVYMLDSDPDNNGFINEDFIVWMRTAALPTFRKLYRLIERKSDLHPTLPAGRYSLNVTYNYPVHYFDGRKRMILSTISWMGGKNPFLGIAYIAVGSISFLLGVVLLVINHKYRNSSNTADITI
B2: Phospholipid-transporting ATPase ID (Homo sapiens), P98198 (parent)
chain: MTVPKEMPEKWARAQAPPSWSRKKPSWGTEEERRARANDREYNEKFQYASNCIKTSKYNILTFLPVNLFEQFQEVANTYFLFLLILQLIPQISSLSWFTTIVPLVLVLTITAVKDATDDYFRHKSDNQVNNRQSQVLINGILQQEQWMNVCVGDIIKLENNQFVAADLLLLSSSEPHGLCYIETAELDGETNMKVRQAIPVTSELGDISKLAKFDGEVICEPPNNKLDKFSGTLYWKENKFPLSNQNMLLRGCVLRNTEWCFGLVIFAGPDTKLMQNSGRTKFKRTSIDRLMNTLVLWIFGFLVCMGVILAIGNAIWEHEVGMRFQVYLPWDEAVDSAFFSGFLSFWSYIIILNTVVPISLYVSVEVIRLGHSYFINWDKKMFCMKKRTPAEARTTTLNEELGQVEYIFSDKTGTLTQNIMVFNKCSINGHSYGDVFDVLGHKAELGERPEPVDFSFNPLADKKFLFWDPSLLEAVKIGDPHTHEFFRLLSLCHTVMSEEKNEGELYYKAQSPDEGALVTAARNFGFVFRSRTPKTITVHEMGTAITYQLLAILDFNNIRKRMSVIVRNPEGKIRLYCKGADTILLDRLHHSTQELLNTTMDHLNEYAGEGLRTLVLAYKDLDEEYYEEWAERRLQASLAQDSREDRLASIYEEVENNMMLLGATAIEDKLQQGVPETIALLTLANIKIWVLTGDKQETAVNIGYSCKMLTDDMTEVFIVTGHTVLEVREELRKAREKMMDSSRSVGNGFTYQDKLSSSKLTSVLEAVAGEYALVINGHSLAHALEADMELEFLETACACKAVICCRVTPLQKAQVVELVKKYKKAVTLAIGDGANDVSMIKTAHIGVGISGQEGIQAVLASDYSFSQFKFLQRLLLVHGRWSYLRMCKFLCYFFYKNFAFTMVHFWFGFFCGFSAQTVYDQYFITLYNIVYTSLPVLAMGVFDQDVPEQRSMEYPKLYEPGQLNLLFNKREFFICIAQGIYTSVLMFFIPYGVFADATRDDGTQLADYQSFAVTVATSLVIVVSVQIGLDTGYWTAINHFFIWGSLAVYFAILFAMHSNGLFDMFPNQFRFVGNAQNTLAQPTVWLTIVLTTVVCIMPVVAFRFLRLNLKPDLSDTVRYTQLVRKKQKAQHRCMRRVGRTGSRRSGYAFSHQEGFGELIMSGKNMRLSSLALSSFTTRSSSSWIESLRRKKSDSASSPSGGADKPLKG
partner: B1 partner
B3: Phospholipid-transporting ATPase ID (Homo sapiens), P98198 (parent)
chain: B2 chain
partner: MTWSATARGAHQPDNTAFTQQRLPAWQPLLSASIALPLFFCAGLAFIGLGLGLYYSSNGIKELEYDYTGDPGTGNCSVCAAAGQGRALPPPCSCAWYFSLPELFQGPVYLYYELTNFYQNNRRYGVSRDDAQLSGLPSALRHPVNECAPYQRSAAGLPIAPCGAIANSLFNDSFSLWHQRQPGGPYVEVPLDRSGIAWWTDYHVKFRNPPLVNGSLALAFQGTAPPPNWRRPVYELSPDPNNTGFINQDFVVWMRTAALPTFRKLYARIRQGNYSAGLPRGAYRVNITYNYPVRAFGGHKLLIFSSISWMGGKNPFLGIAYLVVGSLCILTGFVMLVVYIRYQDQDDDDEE
B4: Phospholipid-transporting ATPase IC (Homo sapiens), O43520 (parent)
chain: B1 chain
partner: B3 partner

Variants of: B1
Details: with cc50a_human TMEM30A

Variant	effect of a mutation on the interaction
D454N	decreasing interaction strength

Variants of: B2
Details: with cc50a_human TMEM30A

Variant	effect of a mutation on the interaction
D411N	decreasing interaction strength

Variants of: B3
Details: with cc50b_human TMEM30B

Variant	effect of a mutation on the interaction
D411N	with no effect

Variants of: B4
Details: with cc50b_human TMEM30B

Variant	effect of a mutation on the interaction
D454N	decreasing interaction strength
